Source: the DeepSol protein solubility set

Assay: soluble on expression in E. coli; label from the status in PepcDB or PDB records

Sequence	soluble on expression in E. coli
MAHHHHHHMIADDMGLGKTVQALAVAHHYRNEWPVLIVCPLSLVENWTKELMRFCSIPIGRIAIFQNSKVRVTDVHSAVIVPYSSLKSLDTQSTTFQVVILDESHYIKTVDSKRTVAALKLCRVARRVLLLSGTPTLSRPIELYPQLQTIMHPSWTPSKSLFAARYCNAFVGRFGVDYLGHSHMSELHVLLQQFVIRRTKRELGNELPSKIRQLLYVYITPKEKKALEKSVSALRNSFRDGATLPTLGDVASTTNMAQGTGGNLTTCTAGGVTATRNMTAFDLKIATARAKIAAVQDYVKSTTEQMVESGQKVIIFAHHQCMMEAIREAVESVQPKQPLDYIYITGETPAAQREALTTHFRTSTNCHVAVLSMHSCGVGHNLTCATMVVFAELDWNPSTHLQCEDRVHRMGQSSACVIKYLLAEGTSDSVIWPMLQTKLNVTHAVLEDSQAGGEGWSAGADTRRILRSDVPLTPSSPEKKQLTLEGFLSHSGSRPSRPLTQSSDSNAEVLKTSDESPRADTSPDTPFQSPSAVAPAENVLFDIAKLRQQREARKVFHSMPVLGTAGAGSSPVAAVTVTPPPPQIQRQVTLHEVLTNHPANSPTPKNSPQQRTNFHVAVAAKSFNERSGAAHTSSCSSETTVCAPIVSHPVKTLFLTRPASANSSSAASSVKPHAGASAADLSVFSTASKEGSICLAPSPRSEEIRRYNARRTPFILGSTLEKRLRPDDMEDQVS	not soluble
MAHHHHHHMIGKIFDNAFRIRTYNRFVCFLIGGTFAYSFSNPDMDTVYDLFPIFKQNKYAYLTFLEVNEKHSNVFEERLKDLCRFYQKQPGYLYTKIIKRIDNINDISKYIVISTWIKSENYLLACNRMYGQILINKIQNYAKYNSYLYRIVVDDSDYLPPI	not soluble
MAHHHHHHMIKCLKNNINIWKRVRRNVSYGYYNININEKIHKYFDNIDKKRNIKYISDCKSCKECVDEIKNGNYNLLKDFNMKMIGLDIEGYKIGKYGIVSIIQICYEDIYIFDIYKCDNVYLFINYIKDILECDDIIKVTHDCREDCSILYNQYNIHLKNILDTQVAYNLLLKNNNNYTNTYQISYDDLLKKYLFINNNHKIYFHKMITLDNYIYLKRPIMKELISYAIQDVIYLKPLILCILDKFIIKQKKKEEQEKNKYVNDKQNNKIKQEKFDKTSNTLQSKGNISSFNNQDLYHTKEIIQDIILHSKKYVNYQFLNSHIKDEKELQKGMILEGMVVSCNNTKMYLKLNMRKRGVILNYVQNKYEIGDIVKAVIVNFTRNDYINLGLYDEKILTLDAQKYIPREEVLQNIQKFLLNEEKI	not soluble
MAHHHHHHMIVELNPANFHKVVKDPSKNVFVMFYAPWCGHCNNMKPMWLELADKYPTAEDVIIARIDASEYRGIAKEFDIRGFPTLKFFSKRDKSGEIEYDGPRELSAFVAYVATNKQ	not soluble
MAHHHHHHMKCQKIRRDIFIYMLYNFSFCAGKKEDKDKGKDKDKEKKKLESVPISHMGKKKKKNKGTSGHSKLPNVTPNTKCRLKLLKLERIKDYLLLEEEYITNQEQIKSSDDKNYVKLKIDDLRGSPVSVGTLEELIDENHGIIATSVGPEYYVNILSFVDKDLLEPGCSVLLNNKTNSVVGILLDEVDPLVSVMKVEKAPLESYADIGGLESQIQEIKEAVELPLTHPELYEDIGIKPPKGVILYGPPGTGKTLLAKAVANETSATFLRVVGSELIQKYLGDGPKLVREMFKVAEEHAPSIVFIDEIDAVGTKRYEATSGGEREIQRTMLELLNQLDGFDSRGDVKVIMATNRIDSLDPALIRPGRIDRKIQLPNPDTKTKRRIFQIHTSKMTMSPDVDLEEFVMSKDELSGADIKAICTEAGLLALRERRMKITQADLRKARDKALFQKKGNIPEGLYL	not soluble
MAHHHHHHMKDYNVTMEVFVQEPDDYVQDQRLLEEILNLTAHQALEAINKPLHEGVLSLSGNVGTMKEKDTITPLARGKPNGVLTQVPTEARREAEERLRREEEERLGGTQEMKFTFSGTIEDVLFRGEFRYKEMKLNDFLLLRFGGRGVVATNRSVLLEEFFKEPARYVPGARVLNEIKITVRYLRIEGTVREEMDLEEVVRMLHHESVFPLSNGRNMKEMTQPLPLQGEN	not soluble
MAHHHHHHMKFAFVFPGQGSQSVGMLNAFADVAVVRETLDEASDALGQDIGKLIADGPADELNLTTNTQPVMLTAAYACYRAWQQAGGAQPSIVAGHSLGEYTALVAAGAIAFRDALPLVRFRAQAMQTAVPVGVGGMAAILGLDDDTVRAVCAEASATGVVEAVNFNAPAQVVIAGTKAGIEKACEIAKEKGAKRALPLPVSAPFHSSLLKPASDKLREYLAGVDVKAPKISVVNNIDVAVVSDPAAIKDALVRQAAGPVRWVECVQHIAREGVTHVIECGPGKVLAGLTKRIDGNLVGASVFDPASLDEALKLAAA	soluble
MAHHHHHHMKKSGKGRIKLKIQINTEEEENKENIIYENKNKKRKGSDISDDNDESIEKFKDLDNSYASDRKQKEDNDLEKKIISIISQLTKITCICEDKKNNINNLENEKICKKLIKQMYKYEKYLLQFSNYINENNNHNLDDITFPNGLIKAVDNYINPNVWIYQYLLLETKKQNDSYRNLIQNISTFDSTLKHKILNNDSNHLVNPVYPPLDENLLNSLNNTQQNYYKNVHIPKELSHYYLKSRNKTKED	not soluble
MAHHHHHHMKNCMMADQRGRSILQYQPIVGDEALEFSRGLAPSTFGFRYAAYMDRNHFLPSGRTAVKHIADPTLAYVMTRYRQCHDFVHIITGCGRSIEEELAVKIFEWKHTGLPLGLLSLLGGAPRLSAAQWAHIRLYWEWASRNAPSSRHGEPAVPMYLNVPWEDMLAKEYDEVVAYTGITPLPDFLEKRQKH	not soluble
MAHHHHHHMKRGREEDKEAEVGGSRVGPSDRRSAATSTEHKPRRLLKGADVGLPLHESVIEETCEVEETHAVLVRFPCFDFFRHVRVCERTRDLQPATSDDAAKASASLASALSDTTFRSGAPPVTSTHDTADVAFAPEAAVFIPGTLETDAPRLLLNGGTPHEMLFEGQWTEVTGEGVSVTNRAVVHLSAKTAGIAVSPAALPLNTSPIMSDAAKSPELARAAAESFPASASQATATPALPIASLLTHTLAGVTADEERRQRAEQQKGWTYDRIDVPSAVLVMHRVR	not soluble
MAHHHHHHMKSSSKDLCKYFCRKCNNFIYYNEACELIYKKIYPDYYKIYYNKYEFDKKTKGKKEVNPKQYDNLYRQLYNNGLCGVNKQRNDFLNKDNINNILLFLNKGSIQCNKCNHIHMWYMK	soluble
MAHHHHHHMKYLTFNRSNKDAIDLCERLEATKIDLANPLLLQYSWVIWEQVSDNKIKQSNNYKDYTRPLAKFNSVQKFWQLWNRLPQPSDLLAQKSMTRLSEDGTLRIIDALMIFRDNIQPMWEDPANAEGGHFEYKFVPRDFPYSQIDEFWNNLVLAIIGCTLKHYNLITGIRLVDKLSTTRHGYVRIEIWYTTVPDESVRNHLRKDLEEHMCNRIDGSHVYPPRGKNFSHSHK	soluble
MAHHHHHHMLANEGRNASANNTTQPSFLILSSKNRHCITHNLTQIQTRCRPHFTEKRLKRGSWLKREEVWIEVQLCYRLGRRFTPTLFSQCAYRPSIRLGPTGTTGLAVPLLKIIYRQNSTIQKHKKEDDEKRCIKKKTIYGT	not soluble
MAHHHHHHMLCTFTTLHERIRILTDAHQLILPEELEAEFPDEAQLIKSMLAANPLQRPQIRKFLRQINKLIVALEAQESDEEAEKPPPPSPLDGTEHSESRNGNDEAATAALVDDSASALATATATSKLGNTPLSTSVAAASSSRGRPVAADLASGGHADSFSDVQDSFSSPLGEQKSRVALLPVFHSEAATGTSVAATSPMAATTSVHDTNAASAGKHVTRRGDSLASLHASTMVKRGNTYHHRRRGSASPNMEAEIGRLHICEMVATGSASRQGFFANDPYGLPTTPVMYTEDADLSTILKRDLQDRTVSAPD	not soluble
MAHHHHHHMLFYITPFPHSEVMRVEEQHQLFLAAKEAQLVRNEATQIILSDASHHSALHGAFVRVLVELPDQSDSYIIARVGAVTTGEPYDGFSHNTSTRTDKYLVLVLPHSLASINGTQYQLNSISNSPMTEDEFNLWLSTMQEPGSVPACAYRGVVEDTDAHLYLESSKIPSRQELLAIGGRIHALGSAASQNSRNPNSRRRRSNNGSSEQSLQQPEWMPKEQQMAIPRISSGNGATLGSIAGMQDYSAFMANPTGGAGPQNGANFNHTNSDPLPSTAGVTEGTNEPSLFVEPTTPRPASATEQELDLPSRHQIRQDILNKLNHRSVVFPQNIDELKLSQLRLVERDMIEYLEHVRDVLSSKQENCVVCLDHVPTVISLPCRHKVLCRLCASAVSTCPVCRSHLFELFEPKEI	not soluble
